The text below walks through data of paper PMC2132594.

For this assay, the target named is human erythrocyte spectrin (heterodimer of α and β chains) (human) (UniProt P02549). Put plainly: single-particle fluorescence imaging. Conditions: remark: other sources report otherwise.

For “human erythrocyte spectrin (heterodimer of α and β chains), P02549 1-2419; P11277 1-2137”, the percent of spots in the second peak (tetramers) stood at 40% and the percent of the total spectrin in the second peak (tetramers) amounted to 59%.
